Reference: patent US8309097 (VERENIGING VOOR CHRISTELIJK WETENSCHAPPELIJK ONDERWIJS, dated 2012)
Where two headings read alike, the source gives them in different places.

What was measured:
[1] = molecular target: T1, ICAM-3 coated on fluorescent beads (UniProt P32942 30-485)
T1 sequence: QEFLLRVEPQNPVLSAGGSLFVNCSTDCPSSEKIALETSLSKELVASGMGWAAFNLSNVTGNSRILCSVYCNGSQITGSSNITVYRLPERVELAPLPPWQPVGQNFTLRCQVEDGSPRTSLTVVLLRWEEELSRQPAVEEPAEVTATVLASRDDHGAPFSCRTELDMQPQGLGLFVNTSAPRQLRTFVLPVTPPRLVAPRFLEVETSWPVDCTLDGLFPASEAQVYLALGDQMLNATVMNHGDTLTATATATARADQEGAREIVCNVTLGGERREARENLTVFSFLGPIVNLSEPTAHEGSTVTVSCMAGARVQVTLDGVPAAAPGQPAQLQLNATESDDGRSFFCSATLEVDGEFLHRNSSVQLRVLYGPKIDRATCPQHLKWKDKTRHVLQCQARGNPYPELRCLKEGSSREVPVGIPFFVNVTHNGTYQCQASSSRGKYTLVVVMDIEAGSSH

[2] = molecular target: T2, ICAM-3-Fc (UniProt P32942 30-485); assay: beads coated with ICAM-3-Fc, immature DC and K562-DC-SIGN
T2 construct: also called pIG-ICAM-3-Fc product; Fc chimera of ICAM-3
T2 sequence (looked up): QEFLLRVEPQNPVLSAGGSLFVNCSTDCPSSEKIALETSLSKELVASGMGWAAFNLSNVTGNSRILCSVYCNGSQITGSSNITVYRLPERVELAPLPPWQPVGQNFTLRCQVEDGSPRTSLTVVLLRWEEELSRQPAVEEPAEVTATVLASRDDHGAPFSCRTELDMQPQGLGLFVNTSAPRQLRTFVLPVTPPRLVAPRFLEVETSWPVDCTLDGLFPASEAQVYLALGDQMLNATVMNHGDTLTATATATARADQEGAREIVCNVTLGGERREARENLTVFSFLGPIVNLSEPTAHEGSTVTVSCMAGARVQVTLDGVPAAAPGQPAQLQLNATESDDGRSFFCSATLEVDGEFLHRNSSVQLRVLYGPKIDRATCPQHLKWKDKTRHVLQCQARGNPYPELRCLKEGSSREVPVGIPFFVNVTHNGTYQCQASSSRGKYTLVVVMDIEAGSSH

[3] = molecular target: T1, ICAM-3 coated on fluorescent beads; assay: fluorescent bead adhesion assay, K562 transfectants
[4] = molecular target: T3, ICAM-3 from granulocytes (UniProt P32942 30-547); assay: ELISA: ICAM-3 captured from granulocyte lysate by coated antibody, DC-SIGN-Fc added (FIG. 22C)
T3 construct: also called ICAM-3 captured or immunoprecipitated from granulocyte lysate
T3 sequence (looked up): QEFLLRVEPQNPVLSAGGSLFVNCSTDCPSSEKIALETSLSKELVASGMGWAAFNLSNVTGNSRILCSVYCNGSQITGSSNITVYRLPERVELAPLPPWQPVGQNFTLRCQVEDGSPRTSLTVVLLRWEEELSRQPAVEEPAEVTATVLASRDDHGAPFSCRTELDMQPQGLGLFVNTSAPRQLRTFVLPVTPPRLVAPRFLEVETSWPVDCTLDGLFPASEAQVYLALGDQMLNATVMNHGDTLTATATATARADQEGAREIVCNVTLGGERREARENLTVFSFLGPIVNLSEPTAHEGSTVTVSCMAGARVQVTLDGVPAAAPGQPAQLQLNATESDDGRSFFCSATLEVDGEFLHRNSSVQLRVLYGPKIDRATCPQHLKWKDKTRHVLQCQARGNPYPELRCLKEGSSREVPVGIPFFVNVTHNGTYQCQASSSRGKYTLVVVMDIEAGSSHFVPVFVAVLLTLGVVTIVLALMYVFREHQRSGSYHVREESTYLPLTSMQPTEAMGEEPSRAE

B1: DC-SIGN (CD209), wild type, expressed on K562 transfectants or immature dendritic cells (receptor, human, UniProt Q9NNX6 1-404, looked up)
chain: MSDSKEPRLQQLGLLEEEQLRGLGFRQTRGYKSLAGCLGHGPLVLQLLSFTLLAGLLVQVSKVPSSISQEQSRQDAIYQNLTQLKAAVGELSEKSKLQEIYQELTQLKAAVGELPEKSKLQEIYQELTRLKAAVGELPEKSKLQEIYQELTWLKAAVGELPEKSKMQEIYQELTRLKAAVGELPEKSKQQEIYQELTRLKAAVGELPEKSKQQEIYQELTRLKAAVGELPEKSKQQEIYQELTQLKAAVERLCHPCPWEWTFFQGNCYFMSNSQRNWHDSITACKEVGAQLVVIKSAEEQNFLQLQSSRSNRFTWMGLSDLNQEGTWQWVDGSPLLPSFKQYWNRGEPNNVGEEDCAEFSGNGWNDDKCNLAKFWICKKSAASCSRDEEQFLSPAPATPNPPPA
notes: whole, on cells; also called cellular DC-SIGN; K562-DC-SIGN
B1: binds [1]; binds [2].

B2: DC-SIGN E347Q mutant expressed by K562 cells (receptor)
chain: MSDSKEPRLQQLGLLEEEQLRGLGFRQTRGYKSLAGCLGHGPLVLQLLSFTLLAGLLVQVSKVPSSISQEQSRQDAIYQNLTQLKAAVGELSEKSKLQEIYQELTQLKAAVGELPEKSKLQEIYQELTRLKAAVGELPEKSKLQEIYQELTWLKAAVGELPEKSKMQEIYQELTRLKAAVGELPEKSKQQEIYQELTRLKAAVGELPEKSKQQEIYQELTRLKAAVGELPEKSKQQEIYQELTQLKAAVERLCHPCPWEWTFFQGNCYFMSNSQRNWHDSITACKEVGAQLVVIKSAEEQNFLQLQSSRSNRFTWMGLSDLNQEGTWQWVDGSPLLPSFKQYWNRGQPNNVGEEDCAEFSGNGWNDDKCNLAKFWICKKSAASCSRDEEQFLSPAPATPNPPPA
notes: whole, on cells
B2: no binding [3].

B3: DC-SIGN-Fc (Fc fusion, human, UniProt Q9NNX6 64-404, looked up, not shown: a dimerising Fc or GST)
chain: PSSISQEQSRQDAIYQNLTQLKAAVGELSEKSKLQEIYQELTQLKAAVGELPEKSKLQEIYQELTRLKAAVGELPEKSKLQEIYQELTWLKAAVGELPEKSKMQEIYQELTRLKAAVGELPEKSKQQEIYQELTRLKAAVGELPEKSKQQEIYQELTRLKAAVGELPEKSKQQEIYQELTQLKAAVERLCHPCPWEWTFFQGNCYFMSNSQRNWHDSITACKEVGAQLVVIKSAEEQNFLQLQSSRSNRFTWMGLSDLNQEGTWQWVDGSPLLPSFKQYWNRGEPNNVGEEDCAEFSGNGWNDDKCNLAKFWICKKSAASCSRDEEQFLSPAPATPNPPPA
notes: range 64-404; also called soluble DC-SIGN-Fc; DC-SIGN-Fe
B3: no binding [4].
